Read-outs that look alike come from different tables or passages of the source. Primed or numbered codes have the meaning given here. Ends that are not written are not given here. * marks the point of attachment. fluorescein = Lys* = fluorescein containing lysine; fluorescein″ = fluorescein-labelled lysine (Lys*)
Legend:
MMP-2 [1] = biological target: T1, MMP-2 (Homo sapiens, UniProt P08253); test: Peptide cleavage by activated MMP-2, HPLC; type: biochemical; conditions: for Km / Vmax / kcat: MMP-2 10 nM, protease buffer pH 7.4
T1 construct: purchased CALBIOCHEM (San Diego, Calif.)
T1 sequence (P08253 110-660): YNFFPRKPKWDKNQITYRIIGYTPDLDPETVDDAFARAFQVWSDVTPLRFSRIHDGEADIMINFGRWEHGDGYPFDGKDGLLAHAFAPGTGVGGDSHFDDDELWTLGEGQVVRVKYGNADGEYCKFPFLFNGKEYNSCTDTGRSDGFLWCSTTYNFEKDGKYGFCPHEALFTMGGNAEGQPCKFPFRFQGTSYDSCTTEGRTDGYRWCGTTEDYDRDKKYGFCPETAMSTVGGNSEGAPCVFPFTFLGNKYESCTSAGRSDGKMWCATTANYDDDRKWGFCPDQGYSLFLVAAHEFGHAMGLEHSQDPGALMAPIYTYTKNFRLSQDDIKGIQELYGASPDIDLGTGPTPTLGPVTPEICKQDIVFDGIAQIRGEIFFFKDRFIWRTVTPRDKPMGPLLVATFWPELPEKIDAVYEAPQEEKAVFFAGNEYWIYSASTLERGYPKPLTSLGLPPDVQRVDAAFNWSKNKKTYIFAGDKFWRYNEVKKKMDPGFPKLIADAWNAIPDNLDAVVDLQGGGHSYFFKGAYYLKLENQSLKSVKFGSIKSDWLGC
Description: (§1) Prospective MMP substrate peptides, Lys*-Pro-Ala-Gly-Leu-Leu-Gly-Cys (SEQ ID NO:2), Lys*-Ala-Gly-Leu-Leu-Cys (SEQ ID NO:32), and Lys*-Gly-Leu-Cys (SEQ ID NO:33), were dissolved in a protease buffer containing Tris-HCl (50 mM), NaCl (0.2 M), CaCl2.2H2O (10 mM), BRIJ-35 (0.05%) and ZnSO4.7H2O (50 μM) (pH=7.4). Activated MMP-2 or MMP-9 was added to the peptide solution at a final concentration of 10 nM. At predetermined time intervals, the reaction was stopped by adding EDTA solution (25 mM). Samples were analyzed using reverse phase high pressure liquid chromatography (HPLC). The HPLC system was composed of a gradient pump connected to a scanning fluorescence detector and a photodiode array detector. Peptides were separated on a ZORBAX Extend-C18 (80 Å, 3.6 μm, 4.6 mm×150 mm) column (Agilent Technologies, Palo Alto, Calif.) using a gradient of 30%-70% of 0.1% trifluoroacetic acid in acetonitrile against 0.1% trifluoroacetic acid in water over a period of 15 minutes at a flow rate of 1 mL/minute. The expected cleaved fragments, Lys*-Pro-Ala-Gly (SEQ ID NO:34), Lys*-Ala-Gly, and Lys*-Gly, were synthesized to confirm HPLC retention times. The HPLC retention time of each fragment was compared to that of the cleaved fragment and the intact peptide using the HPLC conditions described above.

MMP-9 = biological target: T2, MMP-9 (Homo sapiens, UniProt P14780); test: Peptide cleavage by activated MMP-9, HPLC; type: biochemical; conditions: for Km / Vmax / kcat: MMP-9 10 nM, protease buffer pH 7.4
T2 construct: purchased CALBIOCHEM (San Diego, Calif.)
Description: as §1

MMP-2 [2] = biological target: T1, MMP-2; conditions: MMP-2, Turk et al. (2001); cited from earlier work
[3] = tested on: malignant glioma cell line (U-87MG); test: Cell viability of U-87MG glioma cells, modified MTT assay, 24 hours; type: cell-based; conditions: U-87MG cell viability (FIG. 1)
Description: As a model for cancer, the malignant glioma cell line (U-87MG, ATCC #HTB-14) was grown and maintained in Eagles Minimum Essential Media with 10% fetal bovine serum, 1% penicillin/streptomycin, sodium pyruvate (110 mg/L), L-Glutamine (292 mg/L), and nonessential amino acids at 37° C. in 5% CO2. One day prior to the test, cells were plated at 50,000 cells/mL in supplemented media on 96-well plates. Peptides at different concentrations were incubated with cells for 24 hours. Cell viability, with respect to the untreated control, was determined using a modified MTT assay (CELL TITER […] 96® Aqueous One Solution Cell Proliferation Assay; PROMEGA, Madison, Wis.) (Barltrop, et al. (1991) Bioorg. Med. Chem. Lett. 1:661).
To synthesize Pt-complexes, peptides were dissolved in water and equimolar amounts of potassium tetrachloroplatinate (K2PtCl4) (Acros Organics, Morris Plains, N.J.) were added to each peptide solution. The solutions were stirred for 20 hours and lyophilized.

T2 sequence (P14780 107-707 limits assumed): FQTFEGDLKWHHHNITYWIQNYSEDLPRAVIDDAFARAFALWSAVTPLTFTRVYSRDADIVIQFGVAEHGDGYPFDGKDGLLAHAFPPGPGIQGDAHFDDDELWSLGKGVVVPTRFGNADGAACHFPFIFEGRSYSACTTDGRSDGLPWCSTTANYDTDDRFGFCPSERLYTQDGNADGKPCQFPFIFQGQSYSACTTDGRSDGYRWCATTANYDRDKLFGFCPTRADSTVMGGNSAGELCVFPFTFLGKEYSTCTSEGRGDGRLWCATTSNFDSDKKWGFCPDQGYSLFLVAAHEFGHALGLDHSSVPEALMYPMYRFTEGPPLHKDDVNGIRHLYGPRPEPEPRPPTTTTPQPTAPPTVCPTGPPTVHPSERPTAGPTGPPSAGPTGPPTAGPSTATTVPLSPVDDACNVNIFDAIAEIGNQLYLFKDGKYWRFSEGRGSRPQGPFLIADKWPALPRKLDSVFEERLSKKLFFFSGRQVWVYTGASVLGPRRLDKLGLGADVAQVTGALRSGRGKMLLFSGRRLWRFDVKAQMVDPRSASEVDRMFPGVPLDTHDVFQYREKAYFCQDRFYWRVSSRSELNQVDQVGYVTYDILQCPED

| Compound | Km (MMP-2 [1]) | Vmax (MMP-2 [1]) | kcat (MMP-2 [1]) | cleavage site (MMP-2 [1]; cleaved by MMP-2, HPLC comparison with synthesized fragment) | Km (MMP-9) | Vmax (MMP-9) | kcat (MMP-9) | cleavage site (MMP-9; cleaved by MMP-9, HPLC comparison with synthesized fragment) | cleavage site (MMP-2 [2]) | IC50 [3] |
| --- | --- | --- | --- | --- | --- | --- | --- | --- | --- | --- |
| Lys*-Pro-Ala-Gly-Leu-Leu-Gly-Cys (K(fluorescein)PAGLLGC) [prospective MMP substrate peptide with fluorescein containing lysine (Lys*)] | 1000 ± 500 µM | 270 ± 120 (M/s) × 10^−9 | 10.7 ± 4.8 s⁻¹ | cleaved between glycine and leucine | 400 ± 100 µM | 240 ± 50 (M/s) × 10^−9 | 9.6 ± 2.1 s⁻¹ | cleaved between glycine and leucine |  |  |
| Lys*-Ala-Gly-Leu-Leu-Cys (K(fluorescein)AGLLC) [prospective MMP substrate peptide with fluorescein containing lysine (Lys*)] | 1400 ± 400 µM | 6.02 ± 2.1 (M/s) × 10^−9 | 0.24 ± 0.08 s⁻¹ |  | 160 ± 100 µM | 0.99 ± 0.2 (M/s) × 10^−9 | 0.04 ± 0.01 s⁻¹ |  |  |  |
| GPAGLLG [parent peptide from which the three peptides were designed] |  |  |  |  |  |  |  |  | cleaved between glycine and leucine |  |
| [Cl][Pt-2]([Cl])([Cl])[Cl].[K+].[K+] [K2PtCl4, potassium tetrachloroplatinate] |  |  |  |  |  |  |  |  |  | 70.7 ± 15 µM |
| N.N.[Cl][Pt][Cl] [cisplatin] |  |  |  |  |  |  |  |  |  | 46.9 ± 15 µM |
| Lys*-Gly-Leu-Cys (K(fluorescein″)GLC) [prospective MMP substrate peptide with fluorescein containing lysine (Lys*)] | 81 ± 20 µM | 0.88 ± 0.1 (M/s) × 10^−9 | 0.035 ± 0.006 s⁻¹ |  | 600 ± 100 µM | 5.3 ± 1 (M/s) × 10^−9 | 0.21 ± 0.04 s⁻¹ |  |  |  |
